Test results reported in the Human Domainome abundance scans (Beltran et al. 2025).
± gives the uncertainty stated by the source.

B1: Intersectin-1, residues 909 to 971; numbered along this chain, Q15811 (parent)
chain: QGEKVEGLQAQALYPWRAKKDNHLNFNKNDVITVLEQQDMWWFGEVQGQKGWFPKSYVKLISG

Variants of: B1
Experiment: abundance fitness (aPCA) (normalised: wild type 0, dead -1); higher = more abundant; growth selection in yeast, the domain comes from the species named
Conditions: Homo sapiens
Variant A10T has an abundance fitness of -0.746 ± 0.24. In the case of F43M, the abundance fitness is reported as -0.107 ± 0.17. N22S showed an abundance fitness of 0.036 ± 0.11. D39P showed an abundance fitness of -0.297 ± 0.15. Variant K4N has an abundance fitness of -0.026 ± 0.17. Variant Q1S has an abundance fitness of -0.334 ± 0.36. Work on G48A yielded an abundance fitness of -0.208 ± 0.11. In the case of A18Y, the abundance fitness is reported as -0.365 ± 0.073. In the case of G2M, the abundance fitness is reported as 0.113 ± 0.29. Variant A18G has an abundance fitness of 0.043 ± 0.049. In the case of K28N, the abundance fitness is reported as -0.563 ± 0.27. Y57K showed an abundance fitness of 0.081 ± 0.23. In the case of G48V, the abundance fitness is reported as -0.584 ± 0.12. H23S gave an abundance fitness of -0.316 ± 0.14. T33R showed an abundance fitness of -0.034 ± 0.043. Variant L60S has an abundance fitness of -0.18 ± 0.095. With Q9K the abundance fitness was -0.015 ± 0.14. T33P showed an abundance fitness of -0.897 ± 0.19. For E3Q, the abundance fitness was 0.026 ± 0.24. For Y14R, the abundance fitness was -0.052 ± 0.084. Variant L24F has an abundance fitness of -0.466 ± 0.27. K19A gave an abundance fitness of -0.018 ± 0.052. For A18P, the abundance fitness was -0.034 ± 0.1. For D21W, the abundance fitness was -0.112 ± 0.12. With P54C the abundance fitness was -0.765 ± 0.34. G48C showed an abundance fitness of -0.361 ± 0.15. Variant S62H has an abundance fitness of -0.362 ± 0.23. Variant M40Q has an abundance fitness of 0.052 ± 0.34. I61R gave an abundance fitness of -0.155 ± 0.065. Y14S gave an abundance fitness of -0.233 ± 0.11. With Q37R the abundance fitness was -0.06 ± 0.11. In the case of R17G, the abundance fitness is reported as -0.306 ± 0.094. Work on E36A yielded an abundance fitness of -0.026 ± 0.17. G51S showed an abundance fitness of -0.988 ± 0.3. Work on R17E yielded an abundance fitness of -0.049 ± 0.18. With K59A the abundance fitness was -0.165 ± 0.14. D39F gave an abundance fitness of -0.313 ± 0.17. R17F gave an abundance fitness of -0.141 ± 0.27. Y14F showed an abundance fitness of -0.725 ± 0.44. E36G gave an abundance fitness of -0.076 ± 0.093. With G63W the abundance fitness was -0.276 ± 0.15. N29P gave an abundance fitness of -0.728 ± 0.48. Variant E45W has an abundance fitness of -0.274 ± 0.15. Variant G2L has an abundance fitness of -0.386 ± 0.18. Work on I61S yielded an abundance fitness of -0.301 ± 0.13. A18C showed an abundance fitness of -0.189 ± 0.07. In the case of W52A, the abundance fitness is reported as -0.708 ± 0.41. Work on K28G yielded an abundance fitness of -0.203 ± 0.093. D30T gave an abundance fitness of -0.15 ± 0.039. With A10K the abundance fitness was -0.152 ± 0.16. In the case of W16C, the abundance fitness is reported as -0.157 ± 0.17. Q9W showed an abundance fitness of -0.109 ± 0.097. With T33A the abundance fitness was -0.071 ± 0.069. G7Q gave an abundance fitness of 0.164 ± 0.41. In the case of Q1E, the abundance fitness is reported as -0.335 ± 0.31. With R17Q the abundance fitness was -0.066 ± 0.15. With I32T the abundance fitness was -0.97 ± 0.18. In the case of L35V, the abundance fitness is reported as -0.34 ± 0.18. K28I gave an abundance fitness of -0.649 ± 0.42. Work on G51V yielded an abundance fitness of -0.97 ± 0.27. For K20M, the abundance fitness was -0.06 ± 0.072. Work on A18V yielded an abundance fitness of -0.215 ± 0.052. Variant N22T has an abundance fitness of 0.003 ± 0.14. For N25F, the abundance fitness was -0.491 ± 0.23. Variant L60R has an abundance fitness of -0.119 ± 0.087. V46H gave an abundance fitness of 0.035 ± 0.2. I61Y showed an abundance fitness of -0.223 ± 0.27. With G2A the abundance fitness was -0.028 ± 0.12. F26V gave an abundance fitness of -0.335 ± 0.12. D30Q gave an abundance fitness of -0.036 ± 0.048. For E6R, the abundance fitness was -0.108 ± 0.097. Q1C gave an abundance fitness of -0.06 ± 0.19. Variant W42I has an abundance fitness of -0.605 ± 0.29. In the case of L8G, the abundance fitness is reported as -0.048 ± 0.066. Variant Q37S has an abundance fitness of -0.294 ± 0.14. For G63P, the abundance fitness was -0.01 ± 0.19. For Q9A, the abundance fitness was -0.07 ± 0.092. In the case of W52I, the abundance fitness is reported as -0.458 ± 0.25. Variant M40V has an abundance fitness of -0.164 ± 0.1. W16M showed an abundance fitness of -0.281 ± 0.26. For E36V, the abundance fitness was -0.044 ± 0.2. Variant L13G has an abundance fitness of -0.709 ± 0.13. With N27V the abundance fitness was 0.157 ± 0.17. V31R showed an abundance fitness of -0.03 ± 0.028. Work on G63A yielded an abundance fitness of -0.058 ± 0.1. Variant Q1W has an abundance fitness of -0.34 ± 0.16. Work on T33G yielded an abundance fitness of -0.196 ± 0.046. L13D showed an abundance fitness of -0.158 ± 0.29. Q47K gave an abundance fitness of 0.027 ± 0.15. L60I showed an abundance fitness of -0.258 ± 0.25. Variant T33E has an abundance fitness of -0.089 ± 0.078. With G2N the abundance fitness was -0.175 ± 0.3. For V31E, the abundance fitness was -0.185 ± 0.041. A12W showed an abundance fitness of -1.02 ± 0.44. For Q47M, the abundance fitness was -0.097 ± 0.1. Variant P15G has an abundance fitness of 0.115 ± 0.071. Variant A10Y has an abundance fitness of 0.003 ± 0.24. For Y57P, the abundance fitness was -1.02 ± 0.4. Variant G7R has an abundance fitness of -0.227 ± 0.4. Variant W42R has an abundance fitness of -0.767 ± 0.093. Variant D21Q has an abundance fitness of 0.145 ± 0.17. For P54L, the abundance fitness was -0.215 ± 0.11. Work on Y14D yielded an abundance fitness of -0.104 ± 0.17. Work on W42L yielded an abundance fitness of -0.088 ± 0.066. K4G gave an abundance fitness of -0.588 ± 0.15. With K19H the abundance fitness was -0.114 ± 0.064. In the case of E3I, the abundance fitness is reported as 0.237 ± 0.37. With N29S the abundance fitness was -0.128 ± 0.091. With R17P the abundance fitness was -0.293 ± 0.25. Q38W showed an abundance fitness of -0.286 ± 0.15. E45C gave an abundance fitness of -0.117 ± 0.3. Variant N29M has an abundance fitness of -0.034 ± 0.12. Work on F53Q yielded an abundance fitness of -1.03 ± 0.42. In the case of P15N, the abundance fitness is reported as 0.087 ± 0.21. V58R gave an abundance fitness of -1.04 ± 0.34. Work on Q11E yielded an abundance fitness of -0.33 ± 0.13. For L8Y, the abundance fitness was 0.112 ± 0.3. With G2R the abundance fitness was -0.38 ± 0.14. Work on Y57Q yielded an abundance fitness of -0.14 ± 0.12. In the case of V31P, the abundance fitness is reported as -0.325 ± 0.036. For P15W, the abundance fitness was -0.746 ± 0.23. In the case of L60D, the abundance fitness is reported as -0.22 ± 0.23. H23G gave an abundance fitness of -0.164 ± 0.11. W41R gave an abundance fitness of -0.6 ± 0.092. G48T showed an abundance fitness of -0.526 ± 0.22. Work on V5M yielded an abundance fitness of -0.073 ± 0.49. With K4F the abundance fitness was -0.193 ± 0.27. Work on Q49V yielded an abundance fitness of -0.065 ± 0.098. With M40T the abundance fitness was -0.115 ± 0.13. With L8H the abundance fitness was -0.361 ± 0.3. L13N gave an abundance fitness of -0.024 ± 0.42. With Y57T the abundance fitness was -0.013 ± 0.16. With Q49N the abundance fitness was -0.403 ± 0.38. Work on L13R yielded an abundance fitness of -0.126 ± 0.11. For L8D, the abundance fitness was -0.236 ± 0.13. Work on Q47G yielded an abundance fitness of -0.009 ± 0.073. In the case of D39H, the abundance fitness is reported as -0.454 ± 0.39. Work on V31D yielded an abundance fitness of -0.484 ± 0.075. For I32F, the abundance fitness was -0.423 ± 0.27. Work on E36Y yielded an abundance fitness of -0.279 ± 0.24. Q37H showed an abundance fitness of -0.274 ± 0.31. Work on V31L yielded an abundance fitness of -0.022 ± 0.028. Work on V34S yielded an abundance fitness of -0.424 ± 0.26. Variant F26C has an abundance fitness of -0.723 ± 0.35. With K59I the abundance fitness was -0.227 ± 0.21. For Y57L, the abundance fitness was 0.013 ± 0.13. K50W showed an abundance fitness of -0.255 ± 0.23. With V46T the abundance fitness was -0.155 ± 0.14. L60G showed an abundance fitness of -0.18 ± 0.056. In the case of V58D, the abundance fitness is reported as -0.793 ± 0.47. Variant L24K has an abundance fitness of -1.14 ± 0.33. In the case of Q37G, the abundance fitness is reported as -0.085 ± 0.1. Variant S56L has an abundance fitness of -0.102 ± 0.092. Q11G showed an abundance fitness of -0.498 ± 0.093. Y57N gave an abundance fitness of 0.212 ± 0.41. Variant F53L has an abundance fitness of -0.701 ± 0.13. For K28H, the abundance fitness was -0.253 ± 0.24. With K20Q the abundance fitness was -0.171 ± 0.066. In the case of I61M, the abundance fitness is reported as -0.383 ± 0.18. With L24N the abundance fitness was -0.563 ± 0.19. For M40F, the abundance fitness was -0.233 ± 0.38. Work on E36R yielded an abundance fitness of -0.147 ± 0.12. With Y57G the abundance fitness was -0.572 ± 0.13. L13S showed an abundance fitness of -0.412 ± 0.2. I61T showed an abundance fitness of -0.137 ± 0.26. Variant A10M has an abundance fitness of -0.223 ± 0.15. In the case of K59E, the abundance fitness is reported as -0.128 ± 0.14.
